Laboratory results as given in paper PMC3388945.

Target: GST-TFIIB fusion protein (UniProt Q00403)
Assay: pull-down

Chain of UniProt Q00403 (Q00403 whole entry, the tested form may be a part): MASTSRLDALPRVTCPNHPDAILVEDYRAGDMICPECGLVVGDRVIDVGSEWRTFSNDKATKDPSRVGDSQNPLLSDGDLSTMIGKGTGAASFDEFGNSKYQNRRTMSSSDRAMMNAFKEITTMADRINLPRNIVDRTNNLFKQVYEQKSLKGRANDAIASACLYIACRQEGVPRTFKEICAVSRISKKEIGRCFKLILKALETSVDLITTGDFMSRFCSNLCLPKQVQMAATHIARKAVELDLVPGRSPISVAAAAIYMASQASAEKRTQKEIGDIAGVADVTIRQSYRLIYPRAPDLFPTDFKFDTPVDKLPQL

Row | Substance | percent of input precipitated
1 | 35S-IR2P(78-438)-NH (domain or fragment) | 13 % of input
2 | 35S-IR2P(78-397)-NH (domain or fragment) | 12 % of input
